Target: T1, His-mNeon-tagged EBP50 PDZ1-PDZ2 fragment (human, UniProt O14745-1 1-298)
T1 sequence (looked up): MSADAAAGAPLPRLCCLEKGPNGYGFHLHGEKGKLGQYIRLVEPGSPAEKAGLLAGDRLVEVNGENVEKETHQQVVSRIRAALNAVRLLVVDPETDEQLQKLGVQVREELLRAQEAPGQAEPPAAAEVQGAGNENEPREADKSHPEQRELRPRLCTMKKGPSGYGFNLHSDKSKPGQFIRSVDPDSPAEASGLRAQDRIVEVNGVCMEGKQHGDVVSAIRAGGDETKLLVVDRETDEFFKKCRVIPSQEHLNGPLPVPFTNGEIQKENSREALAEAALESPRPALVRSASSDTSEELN
Test: pull-down

B1: GST-CDHR5 CD (GST fusion of the cytoplasmic tail of CDHR5) (domain or fragment, human, UniProt Q9HBB8-1 697-845, looked up)
chain: RLKCCCGKAPEPQPQGFDNQAFLPDHKANWAPVPSPTHDPKPAEAPMPAEPAPPGPASPGGAPEPPAAARAGGSPTAVRSILTKERRPEGGYKAVWFGEDIGTEADVVVLNAPTLDVDGASDSGSGDEGEGAGRGGGPYDAPGGDDSYI
binding result: binds
